Assay results: patent US20230075633A1 (SHANDONG BOAN BIOTECHNOLOGY, published 2023)

What was measured:
human CEA [1] = target: T1, human CEA (human, UniProt P06731 35-702); assay: cell-based or functional assay
T1 sequence (looked up): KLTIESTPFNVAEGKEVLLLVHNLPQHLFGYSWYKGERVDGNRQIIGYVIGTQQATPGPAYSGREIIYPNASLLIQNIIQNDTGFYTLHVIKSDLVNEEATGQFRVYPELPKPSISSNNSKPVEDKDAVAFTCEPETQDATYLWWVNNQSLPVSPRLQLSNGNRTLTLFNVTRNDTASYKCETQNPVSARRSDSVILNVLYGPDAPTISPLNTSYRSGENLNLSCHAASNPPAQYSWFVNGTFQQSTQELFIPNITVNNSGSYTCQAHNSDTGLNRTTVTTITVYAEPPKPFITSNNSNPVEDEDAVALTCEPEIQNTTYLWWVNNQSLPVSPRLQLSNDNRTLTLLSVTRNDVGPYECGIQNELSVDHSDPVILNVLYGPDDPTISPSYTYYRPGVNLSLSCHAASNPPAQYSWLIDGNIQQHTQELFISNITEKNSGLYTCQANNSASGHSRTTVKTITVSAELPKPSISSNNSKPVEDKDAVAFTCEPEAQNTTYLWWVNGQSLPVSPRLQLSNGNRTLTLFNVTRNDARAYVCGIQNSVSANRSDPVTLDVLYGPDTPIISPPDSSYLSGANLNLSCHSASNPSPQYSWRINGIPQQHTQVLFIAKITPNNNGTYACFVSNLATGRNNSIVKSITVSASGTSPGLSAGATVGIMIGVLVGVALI

[2] = target: T2, Cynomolgus monkey CD3 protein (cynomolgus monkey, UniProt Q95LI5 22-117); assay: ELISA on cynomolgus monkey CD3 protein, curve fit
T2 sequence (looked up): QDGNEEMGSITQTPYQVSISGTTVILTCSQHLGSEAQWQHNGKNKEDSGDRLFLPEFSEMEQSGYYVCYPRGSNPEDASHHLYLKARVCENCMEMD

human CEA [3] = target: T1, human CEA; assay: cell-based or functional assay; remark: listed apart in the source
human CEA [4] = target: T1, human CEA; assay: cell-based or functional assay; remark: listed apart in the source
human CEA [5] = target: T1, human CEA; assay: cell-based or functional assay; remark: listed apart in the source
human CD3 [6] = target: T3, human CD3 (human, UniProt P07766 23-207); assay: cell-based or functional assay
T3 sequence (P07766 23-207): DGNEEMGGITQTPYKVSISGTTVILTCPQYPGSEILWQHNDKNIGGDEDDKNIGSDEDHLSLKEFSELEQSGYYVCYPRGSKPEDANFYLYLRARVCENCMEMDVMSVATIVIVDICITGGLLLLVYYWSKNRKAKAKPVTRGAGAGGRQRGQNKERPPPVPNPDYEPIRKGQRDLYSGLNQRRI

human CD3 [7] = target: T3, human CD3; assay: flow cytometry on Jurkat cells
Procedure: (§1) Mean fluorescence intensity (MFI) was determined by Flow cytometry. […] Mean fluorescence intensity (MFI) was determined by Flow cytometry.

human CD3 [8] = target: T3, human CD3; assay: flow cytometry on human PBMC (ND 12)
Procedure: as §1

- lysis of LS-174T cells by PBMC: Bottom (human CEA [1]): 12.6
- lysis of LS-174T cells by PBMC: LogEC50 (human CEA [1]): -2.18
- lysis of LS-174T cells by PBMC: Span (human CEA [1]): 91.8
- lysis of LS-174T cells by PBMC: Top (human CEA [1]): 104
- Bottom (best-fit) [2]: 0.00678
- LogEC50 [2]: -1.75
- Span (best-fit) [2]: 4.09
- Top (best-fit) [2]: 4.1
- cytolysis of KATO-III cells by PBMC: EC50 (human CEA [3]): 0.132 nM
- cytolysis of LS174T cells by PBMC: EC50 (human CEA [3]): 0.0003 nM
- cytolysis of MKN-45 cells by PBMC: EC50 (human CEA [3]): 0.0003 nM
- lysis of KATO III cells by PBMC: Bottom (human CEA [4]): 58.1
- lysis of KATO III cells by PBMC: LogEC50 (human CEA [4]): -0.194
- lysis of KATO III cells by PBMC: Span (human CEA [4]): 36.2
- lysis of KATO III cells by PBMC: Top (human CEA [4]): 94.3
- NFAT-luciferase in Jurkat cells: Bottom (human CD3 [6]): 2830
- NFAT-luciferase in Jurkat cells: LogEC50 (human CD3 [6]): -0.154
- NFAT-luciferase in Jurkat cells: Span (human CD3 [6]): 17200
- NFAT-luciferase in Jurkat cells: Top (human CD3 [6]): 20000
- EC50 (human CD3 [7]): 113 nM
- EC50 (human CD3 [8]): 81 nM
B1: CEA/CD3OPT1a3b2b1 BsAb (bispecific antibody, V domains shown)
VH 1: EVQLVESGGGLVQPGGSLRLSCAASGFNIKDTYMHWVRQAPGKGLEWVARIDPAQGNTKYADSVKGRFTISADTSKNTAYLQMNSLRAEDTAVYYCAPFGYYVSDYAMAYWGQGTLVTVSS
VL 1: DIQLTQSPSSLSASVGDRVTITCRAGESVDIFGVGFLHWYQQKPGKAPKLLIYRASNLESGVPSRFSGSGSRTDFTLTISSLQPEDFATYYCQQTNEDPYTFGQGTKVEIK
VH 2: EVQLVESGGGLVKPGGSLKLSCAASGFTFSTYAMNWVRQAPGKGLEWVARIRSKYNNYATTYADSVKDRFTISRDDSKNTAYLQMNNLRTEDTAVYYCVRHGNWGNSYISYWAYWGQGTTVTVSS
VL 2: not shown
notes: also called CEA/CD3-1a3b2b1-BsAb; Lead CEA/CD3; copies: 2 + 2 + 2 + 2
- killing of LS-174T cells by PBMC at E:T ratio of 5:1 (human CEA [5]): 20%
